Biological target: FOXM1 (Forkhead box M1) (UniProt Q08050)
Test: GST pull-down with purified proteins
Settings: reference: GST-ZNF148 WT without ERK; sites S306

binding against the reference: stronger
Substance: ZNF148 (ZBP‐89) (from UniProt Q9UQR1) GST-ZNF148 WT pre-incubated with active ERK

From publication PMC7156819
